From patent US20150168399A1 (INSERM INSTITUT NATIONAL DE LA SANTE ET DE LA RECHERCHE …, published 2015)
Blank lines part the entries; values can stand above or below the molecule they belong to.

Experiments:
[1] = target: recombinant human endocan (Human active Endocan 1-165, SEQ ID NO: 1) (human) (UniProt Q9NQ30); assay: cell-based or functional assay
[2] = target: human leukocyte integrin LFA-1 (CD11a/CD18) on Jurkat cells or human NK cells (human) (UniProt P20701); assay: cell-based or functional assay
[3] = target: T1, human leukocyte integrin LFA-1 (CD11a/CD18) on Jurkat cells or human NK cells (human, UniProt P20701 26-1170; P05107 23-769); assay: co-immunoprecipitation from Jurkat lysates with HI111 and mab24
T1 construct: whole, on cells; also called CD11a/CD18 integrin; endocan's receptor
Procedure: FIG. 4B: Non glycanable endocan is co-immunoprecipitated with anti-LFA-1 mabs. Bound endocan from 20 to 40×10⁶ Jurkat cells were incubated with a mab against endocan (MEC36), mabs against LFA-1 (HI111 and mab24), and anti-CD3 mab as control antibody. Bound endocan is expressed in pg per 10⁶ cells.
Immunoprecipitation of Jurkat lysates containing endocan or non glycanated endocan S137A/E was performed as previously described in Bechard D et al (J Immunol. 2001; 167:3099-3106) using anti-CD11 a mabs HI111 (BD Biosciences), and mab24 (a generous gift of Dr Nancy Hogg from Leukocyte Adhesion Laboratory, Cancer Research UK, London Research Institute, London, UK).

[4] = target: T2, recombinant human endocan (Human active Endocan 1-165, SEQ ID NO: 1)
T2 chain: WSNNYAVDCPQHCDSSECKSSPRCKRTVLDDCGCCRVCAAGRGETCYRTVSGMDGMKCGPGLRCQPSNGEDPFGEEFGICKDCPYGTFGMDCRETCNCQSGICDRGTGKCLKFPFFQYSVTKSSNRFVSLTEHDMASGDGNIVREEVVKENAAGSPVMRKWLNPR

T1 sequence (P20701 26-1170, chain 1 of 2): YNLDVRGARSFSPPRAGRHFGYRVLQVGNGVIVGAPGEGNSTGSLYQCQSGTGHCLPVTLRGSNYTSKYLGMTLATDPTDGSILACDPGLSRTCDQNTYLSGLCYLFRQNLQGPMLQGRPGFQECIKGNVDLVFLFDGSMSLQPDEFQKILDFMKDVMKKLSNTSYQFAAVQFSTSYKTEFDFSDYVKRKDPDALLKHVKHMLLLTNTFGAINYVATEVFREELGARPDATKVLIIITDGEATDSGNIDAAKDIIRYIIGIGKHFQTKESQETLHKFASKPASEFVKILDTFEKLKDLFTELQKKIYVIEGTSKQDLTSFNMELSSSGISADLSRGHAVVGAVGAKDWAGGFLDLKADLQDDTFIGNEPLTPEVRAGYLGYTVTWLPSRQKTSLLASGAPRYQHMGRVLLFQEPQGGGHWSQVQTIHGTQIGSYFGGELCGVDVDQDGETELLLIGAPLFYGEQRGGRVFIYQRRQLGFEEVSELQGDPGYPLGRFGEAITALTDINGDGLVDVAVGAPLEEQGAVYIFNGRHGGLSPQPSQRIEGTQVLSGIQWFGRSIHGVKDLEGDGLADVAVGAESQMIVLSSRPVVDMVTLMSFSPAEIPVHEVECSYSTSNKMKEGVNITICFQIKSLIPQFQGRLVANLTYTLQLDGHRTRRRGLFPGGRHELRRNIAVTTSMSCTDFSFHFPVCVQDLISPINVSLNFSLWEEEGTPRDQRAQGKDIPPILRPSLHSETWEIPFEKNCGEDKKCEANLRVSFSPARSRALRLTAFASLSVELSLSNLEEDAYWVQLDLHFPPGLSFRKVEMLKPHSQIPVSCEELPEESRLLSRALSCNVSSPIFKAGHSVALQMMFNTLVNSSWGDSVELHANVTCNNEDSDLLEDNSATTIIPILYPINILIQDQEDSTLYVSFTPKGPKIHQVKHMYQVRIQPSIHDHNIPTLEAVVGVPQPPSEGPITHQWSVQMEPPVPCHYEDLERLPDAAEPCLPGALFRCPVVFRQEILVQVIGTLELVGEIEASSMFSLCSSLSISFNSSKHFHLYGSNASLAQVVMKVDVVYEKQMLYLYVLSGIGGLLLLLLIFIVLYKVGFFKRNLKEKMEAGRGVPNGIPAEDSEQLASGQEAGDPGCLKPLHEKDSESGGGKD
T1 sequence (P05107 23-769, chain 2 of 2): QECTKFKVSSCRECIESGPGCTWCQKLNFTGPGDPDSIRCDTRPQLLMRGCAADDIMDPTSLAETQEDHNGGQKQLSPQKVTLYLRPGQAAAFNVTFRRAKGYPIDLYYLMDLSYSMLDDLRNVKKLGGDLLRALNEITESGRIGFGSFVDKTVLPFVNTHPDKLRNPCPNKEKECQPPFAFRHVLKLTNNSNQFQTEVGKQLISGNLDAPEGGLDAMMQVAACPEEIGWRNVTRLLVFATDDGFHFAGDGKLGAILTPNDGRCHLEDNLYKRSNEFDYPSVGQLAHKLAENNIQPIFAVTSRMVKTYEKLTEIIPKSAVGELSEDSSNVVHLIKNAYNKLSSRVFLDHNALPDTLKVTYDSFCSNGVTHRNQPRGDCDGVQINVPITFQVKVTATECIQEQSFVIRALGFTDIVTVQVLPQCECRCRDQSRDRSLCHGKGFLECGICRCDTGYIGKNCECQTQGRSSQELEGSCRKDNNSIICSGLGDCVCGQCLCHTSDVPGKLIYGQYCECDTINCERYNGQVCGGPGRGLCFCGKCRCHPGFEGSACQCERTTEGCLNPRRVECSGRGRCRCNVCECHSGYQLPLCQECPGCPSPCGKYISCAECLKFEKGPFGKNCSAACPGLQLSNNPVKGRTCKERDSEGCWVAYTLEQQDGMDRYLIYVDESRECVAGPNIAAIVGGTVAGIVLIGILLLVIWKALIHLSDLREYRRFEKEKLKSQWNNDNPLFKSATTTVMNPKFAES
Sequence of human leukocyte integrin LFA-1 (CD11a/CD18) on Jurkat cells or human NK cells (human) (P20701 26-1170, chain 1 of 2): as the sequence (P20701 26-1170, chain 1 of 2) above
Sequence of human leukocyte integrin LFA-1 (CD11a/CD18) on Jurkat cells or human NK cells (human) (P05107 23-769, chain 2 of 2, further chain): as the sequence (P05107 23-769, chain 2 of 2) above

loss of the 50 kDa band of endocan [1]: 1 µg/mL
Molecule: purified proteinase 3 (Sigma) (from UniProt P24158 28-248) (enzyme)

decrease in transendothelial migration of NK cells through TNF-stimulated HUVEC [2]: 82%
Molecule: monoclonal anti-human LFA-1 clone HI111 (antibody)

binding result [3]: binds
B1: non glycanable endocan mutant (S137A/endocan) (ligand)
chain: WSNNYAVDCPQHCDSSECKSSPRCKRTVLDDCGCCRVCAAGRGETCYRTVSGMDGMKCGPGLRCQPSNGEDPFGEEFGICKDCPYGTFGMDCRETCNCQSGICDRGTGKCLKFPFFQYSVTKSSNRFVSLTEHDMAAGDGNIVREEVVKENAAGSPVMRKWLNPR
notes: Produced in 293 cells; lacks the glycan chain; also called non glycanated endocan S137A/E

More lines, now with the values behind:

B2: purified elastase (Sigma) (protein)
chain: IVGGRRARPHAWPFMVSLQLRGGHFCGATLIAPNFVMSAAHCVANVNVRAVRVVLGAHNLSRREPTRQVFAVQRIFENGYDPVNLLNDIVILQLNGSATINANVQVAQLPAQGRRLGNGVQCLAMGWGLLGRNRGIASVLQELNVTVVTSLCRRSNVCTLVRGRQAGVCFGDSGSPLVCNGLIHGIASFVRGGCASGLYPDAFAPVAQFVNWIDSIIQ
minimal concentration of elastase required for near complete degradation of endocan [4]: 0.1 µg/mL

B3: purified cathepsin G (Sigma) (protein)
chain: IIGGRESRPHSRPYMAYLQIQSPAGQSRCGGFLVREDFVLTAAHCWGSNINVTLGAHNIQRRENTQQHITARRAIRHPQYNQRTIQNDIMLLQLSRRVRRNRNVNPVALPRAQEGLRPGTLCTVAGWGRVSMRRGTDTLREVQLRVQRDRQCLRIFGSYDPRRQICVGDRRERKAAFKGDSGGPLLCNNVAHGIVSYGKSSGVPPEVFTRVSSFLPWIRTTMRS
minimal concentration of cathepsin G required to cleave completely endocan in 24 h [4]: 0.01 µg/mL
reduction of the detection of MEP14-bound endocan after two hours with cathepsin G at 37° C. [4]: from 70% to 100%
